Reference: article PMC10539048

Biological target: filamentous actin polymerized from human platelet actin (human) (UniProt P60709)
Assay: co-sedimentation

Row | percent reduction of actin-binding activity relative to WT | Substance
1 | 43% | human MAP2C T293E (from UniProt P11137-2 1-471) (natural protein)
2 | 43% | human MAP2C T300E (from UniProt P11137-2 1-471) (natural protein)
